Measured values reported in publication PMC5345856, “Suppressor of rid1 (SID1) shares common targets with RID1 on florigen genes to initiate floral transition in rice”.
Where a chain is given by its changes, count along the chain named.

T1: RID1 (Oryza sativa (rice), UniProt B1B534 1-475)
T1 sequence: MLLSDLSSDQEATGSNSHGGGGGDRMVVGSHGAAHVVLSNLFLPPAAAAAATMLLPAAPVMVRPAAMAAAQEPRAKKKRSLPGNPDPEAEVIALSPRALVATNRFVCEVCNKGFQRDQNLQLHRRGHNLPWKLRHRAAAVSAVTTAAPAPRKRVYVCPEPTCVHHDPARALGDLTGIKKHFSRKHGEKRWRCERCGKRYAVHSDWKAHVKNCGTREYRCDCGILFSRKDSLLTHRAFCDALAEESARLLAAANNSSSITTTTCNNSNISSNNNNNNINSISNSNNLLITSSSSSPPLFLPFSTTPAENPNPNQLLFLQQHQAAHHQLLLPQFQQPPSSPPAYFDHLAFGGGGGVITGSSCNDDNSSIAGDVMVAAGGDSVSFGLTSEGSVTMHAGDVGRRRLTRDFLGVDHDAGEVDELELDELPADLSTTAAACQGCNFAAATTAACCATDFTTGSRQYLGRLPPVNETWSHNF

B1: bio-Hd3a (dsDNA)
DNA 1: CTTATCTTGCCCGGACAAATCGAGCTAAGCAA
DNA 2: TTGCTTAGCTCGATTTGTCCGGGCAAGATAAG
B2: bio-Hd3a-M (dsDNA)
DNA 1: B1 DNA 1 with C16T, A17T
DNA 2: B1 DNA 2 with T16A, G17A
B3: bio-RFT1 (dsDNA)
DNA 1: ATAACGTTTGACCATTTGTCTTATTAAATATATATATAAA
DNA 2: TTTATATATATATTTAATAAGACAAATGGTCAAACGTTAT
B4: bio-RFT1-M (dsDNA)
DNA 1: B3 DNA 1 with T17A, G18A
DNA 2: B3 DNA 2 with C23T, A24T

The binders below were run against T1, RID1 (assay: EMSA; 10 uM ZnCl2; 10 mM Tris (pH not stated), 50 mM KCl, 10 uM ZnCl2, 1 mM DTT, 1 ug/ul poly(dI-dC), 0.1% BSA, 2.5% glycerol, 0.05% NP-40; 50 fmol probe; 30 min on ice; 6% native PAGE). Settings: protein: recombinant; tags: His (pET-32a; vector Trx fusion not mentioned); label: 5' biotin; blunt.

| Binder | binding result |
| --- | --- |
| B1 | binds |
| B2 | no binding |
| B3 | binds |
| B4 | no binding |
